Data on one substance can be found in US20110024630A1, “System, Device, and Methods for Real-Time Screening of Live Cells, Biomarkers, and Chemical Signatures” (BATTELLE MEMORIAL INSTITUTE, priority 2009, published 2011).

The test system of the data set is JB6 carcinogenesis mouse endothelial model cells. Kind of data set: Real-time ATR-FTIR monitoring of confluent cells treated with tumor promoter (bFGF). It counts as cell-based. As to conditions: 72-hour time point, bFGF added at 48 hours. The method, then:
Spent media was replaced with fresh media at 24-hour intervals. Cells were confluent at 24 hours and had attached to the ATR substrate. […] The 1604 cm^−1 band also contains a broad water band which is observed at the 6.5 hour time point where there is greater media contact with the ATR substrate due to a non-confluent cell monolayer. […] Tyrosine aromatic rings absorb in the 1508 cm^−1 region and the symmetric carboxylate stretching vibrations are reflected in the band at 1452 cm^−1. Overall, data reflect the ability to obtain spectra over a period of days which show the attachment of cells to the substrate and a response to perturbation.
Mouse cells (JB6 carcinogenesis mouse endothelial model cells) (clone 41-5a, ATCC, Manassas, Va., USA) were maintained in a minimal essential medium (MEM+GlutaMAX-I™, CISCO, Grand Island, N.Y.) supplemented with 5% fetal bovine serum (FBS) (Atlanta Biologicais, Norcross, Ga.) that further included: 1% penicillin/streptomycin (GIBCO, Grand Island, N.Y.) and an additional 1%. GlutaMAX-I™ (GIBCO, Grand Island, N.Y.). Cells were maintained at 37° C. and 5% CO2 in an incubator (e.g., a ThermoForma Series II Water Jacketed CO2 incubator. Thermo Fisher Scientific, inc., Waltham, Mass.) equipped with a HEPA filter. The JB6 cells were subcultured at 70-80% confluency following standard protocols. […]

Regarding basic fibroblast growth factor [bFGF], the “cell outcome to which spectral results are attributed” value is listed as “cell death”. For the same substance, the “1696 cm^-1 amide peak” value (FIG. 7b) was “increased intensity and has broadened”.
